Results reported in patent publication US20040014148A1 (RIGEL PHARMACEUTICALS, published 2004).
No end group written: not given here.

B1: peptide DL03wt (peptide)
peptide: LYTSILLHGATTASMTKPLA
modifications: also: expressed as BFP fusion (BFP, alpha-helical linker, peptide) in GAL4 bait vector, fusion sequences not given here

Assays:
[1] = target: T1, human chloride intracellular channel 1 (human, UniProt O00299 1-241); assay: cell-based or functional assay
[2] = target: T1, human chloride intracellular channel 1; assay: cell-based or functional assay; remark: listed apart in the source

Binder	endogenous epsilon inhibition ratio (TAQMAN quantitative PCR, +IL-4/+Dox to +IL-4/-Dox) [1]	reporter ratio (original library clone screen, A5T4 cells) [1]	Reporter Ratio (A5T4 reporter line, IL-4 induced germline epsilon transcription) [2]
B1	2.11	1.32	1.5
LYTSAALHGATTASMTKPLA [peptide DL03IL]			1.16
LYTSILLHGATTASMTAALA [peptide DL03KP]			1.77
LYTSILLHGATTASMTKPAR [peptide DL03LA]			1.22
